Test results: publication PMC4547098 (eLife, 2015)

B1: Pikp-HMA domain made in Sf9 cells for crystallisation (domain or fragment, rice (Oryza sativa), UniProt E9KPB5 186-258, looked up)
chain: GLKQKIVIKVAMEGNNCRSKAMALVASTGGVDSVALVGDLRDKIEVVGYGIDPIKLISALRKKVGDAELLQVS
notes: also called Pikp1-HMA; not shown: 6xHis+SUMO, N-terminal, cleaved
B2: Pikp-HMA domain (HMA integrated domain of the rice NLR Pikp-1) (domain or fragment)
chain: B1 chain
notes: also called Pikp1-HMA; Pikp-1 HMA; not shown: 6xHis+SUMO, N-terminal, cleaved

What was measured:
[1] = biological target: the molecule itself; test: crystal structure; Pikp-HMA alone; 0.1 M MIB buffer pH 5.0, 25% PEG 1500; dimer in the crystal
[2] = biological target: AVR-PikD with non-cleavable C-terminal 6xHis tag (pOPINE) (Magnaporthe oryzae, UniProt C4B8B8 22-113); test: SPR; Biacore T200, 25°C, multi-cycle kinetics; […]; 50 mM HEPES pH 7.5, 150 mM NaCl, 0.1% Tween 20; […]; details: both partners purified

Binder	stoichiometry N [1]	Kd [2]
B1	2	
B2		31 ± 2 nM
